Assay: yeast display, Sf9 membrane polyspecificity reagent, FACS + sequencing; frameworks hold sequencing errors
In short: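 Sorting gates, low and high (top ~1%), were placed on anti-HA fluorescence to track expression and on streptavidin fluorescence to track reagent binding. A clone's polyreactivity label is taken from the gate it came out of. The reagent was 10% biotinylated, detergent-solubilized Sf9 membrane, applied for 1 hour at 4 °C to galactose-induced yeast display cells.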

Sequence | polyreactivity (PSR sort gate)
QVQLVESGGGLVQAGGSLRLSCAASGRTFYRYAMGWYRQAPWKERELVAAITKRGSGTYYADSVKGRFTISRDNAKNTVYLQMNSLKPEDTAVYYCATDGYIRPSRPAPTQPTFNYWGQGSQVTVSS | high polyreactivity
QVQLVESGGGLLQAGGSLRLSCASSGRTFARYVMGWYRQAPGKERELVAAITRSGGSTYYADSVKGRFTISRDNAKNTVYLQMNSMKPEDTAVYYCAATLRWGLYNTFYSTFNVSYYYWGQGTQVTVSS | high polyreactivity
QVQLVESGGGLVQAGGSLRLSCAASGRTFVRYAMGWYSQAPGKERELVAAISGIATRTYYADSVKGRFTISRDNAKNTVYLQMNSLKPEDTAVYYCNALYAKYDYWGQGTQVTVSS | high polyreactivity
QVQLVESGGGLVQAGGSLRLSCAASGLIFLQYVMGWSRQAPGKEREFVATITDDGDTTYYADSVKGRFTISRDNAKNTVYLQMNSLKPEDTAVYYCAADAEGSASKYDYWGQGTQVTVSS | low polyreactivity
QVQLVESGGGIVQAGGSLRLSCAASGSTFNANGMGWYRQAPGKERELVAAISWRGSTYYADSVKGRFTISRDNAKNTVYLQMNSLKPEDTAVYYCAAYRYSWSYQYRYGYWGQGTQVTVSS | high polyreactivity
QVQLVESGGGLVQAGGSLPLSCAASGRTFGSYVMRWYRQAPGKERELVATISRRGGTTYYADSVKGRFTISRDNAKNTVYLQMNSLKPEDTAVYYCAAKYFATRYDYWGQGTQVTVSS | high polyreactivity
QVQLVESCGGLGQAGGSLRLSCSASGRIFGTYAKGLYRKAPGKERELLASISYSDGSTYADSVKGRFTISRDNAKNTVYLQMNSLKPEDTSVYYCAADVYYYAQSEDGYWGQGTQVTVSS | low polyreactivity
QVQLLESGGGLVQAGGSLRLSCAASGYTFASYAMGWYRQAPGKERELVASISNGGGTNYADSVKGLFRISRDNAKNTVYLQMNSLKPEDTAVYYCAKRYRYYSHSYYYWGQCTQVTVSS | high polyreactivity
QVQLVESGGGLVQAGGSLRLSCAASGSIFTVNAMGWYIQAPGIERELVAAIDGSSGSTNYADSVKGRFTISRDIAKNTVYLQMNSLKPEDTAVYYCAADWSYEYGYWGQGTQVTVSS | low polyreactivity
QVQLVESGGGLVQAGGSHRLSCAASGITFSTYAKGGYRQAPGKERELVAAITKSGGSTYYADSVKGRFTISRDTAKNTVYLQMNSLKPEDTAVYYCAAEGDWRGSALYNYWGLGTQVTVSS | low polyreactivity
QVQLVESGGGLVQAGGSLRLSCAASGSIFRQYAMGLSRQAPGKERELVAAITYSGGNTYYADSVKGRFTISRDNAKNPVYLQLNSLKPEDTAVYYCAADYGSRSWEYTYWGQGTQVTVSS | low polyreactivity
QGQLVESGGGLVQAGGSLRLSCAASGFNFRRYAMGWYRHAPGKERELVAVITSGGSTYYADSVKGRFTISRDYAKNTVYLQMNSLKPEDTAVYYCASRYYWYSQEYVLSSWWGDYWGLGTQVTVSS | high polyreactivity
QVQLVESGGGLVQAGGSLRLSCAASGSIFTFYAMGWYRQAPGKERELVATITWSGGSTFYADSVKGRFTISRDNAKNTVYLQMNSLKPEDTAVYYCAAYRVDYSDAYYYWGQGTQVTVSS | low polyreactivity
QVQLVESGGGLVQAGGSLRLSCAASGRIFDRYALGWYRQAPGTERELVAVISQSGGRTYYADSVKGRFTISRDNAKNTVYLEMNSLKPEDSAVYYCNKRYRNRYSYSEGDYWGQGTQVTVSS | high polyreactivity
QVQLVESGGGLVQAGGRLRISCAASGTIFAYALGWYRPAPGKERELVAGISRRGGSTYYADSVKGRFTISRDNAKKTVYLQMKSLKPEDTAVYYCAADYYTLYPVYIKRYGYWGQGTQVTVSA | high polyreactivity
QVQLVESAGGLVQAGGSLRLSCAASASTFTNYVMGWYRQAPGKERELVAAITKSGGSTYYADSVKGRYTISRDNAKNTVYLQMNRLKPEDTAVYYCAARRTTEFGYWGQGTQVTVSS | high polyreactivity

Sequence | polyreactivity (PSR sort gate)
QVQLVESGGCLVQAGGSLRLSCSTSGSTFAVYVMGWSRQAPGKERELVAAISTSGARTYYADSVKGRFTISRDNAKNTDYLQMNSLKPEDTAVYYCAARGIYKSKYDYWGQGTQVSVSS | high polyreactivity
QVQLGESRGGIVQAGGSLRLSCAASGSTFSYYAMGWYRQAPGKARELVAAISNRGGSTYYADSVKGRFTISRDNAKNTVYLQMNSLKPEDTAVYYCAAYYVFGYSTSGDYWGQGTQVTVSS | high polyreactivity
QVQLVESGGGLVQAGGSLRLSCAASGSTFVGNAMGWYRQEPGKERELVATISNSGGRTYYADSVKGRLTISRDNAKYTVYLQMNSLKPEDTAVYYCAADHPDFGPGYSFDYWGQGTQVTVSS | low polyreactivity
QVQLVESGGGLVQAGGSLRLSCAASGRIFWGYAMGWSRQAPGKERELVAGITYSGGSTYYADSVKGRFTISRDNAKNTVYLQMNSLKPEDTAVYYCAAAKSYRSGSWYEYWGQGTEVTVSS | high polyreactivity
QVQLEESGGGLVQAGGSLRLICAASGGTISKYAMGWYRQAPGTEMELVAAITYSSGSTYYADSVKGRFTISRDNAKNTVYLQMNSLKPEDTAVYYCAARSGLYWWRFDYWGQGTLVTVSS | high polyreactivity
QVQLVESGGGLVQAGGSLRLSCDASGITFDDYSRGWYRQAPGKERELVAAISGSGGSTYYADSVKGRFTISRDNAKNTVFLQMHSLKPEDTAVYYCAASGPEGQYLWYDYWGKGTQVTVSS | high polyreactivity
QVQLVESAGGLVQAGGSLRLSCPASGSTFTFNAMGWYRQAPGKERELVADITSGGRTNYADSVKGRFTISRDNAKNTVYLQMNSLKPEDTAVYYCAARWWAHEYPGYDSWGQGTQVTVSS | low polyreactivity
QDQHVESGGGLVQAGASLRLSCSASGRIFRRYAMGWYRQAPGKERELVAAISWSGGTTYYADSVKGRFTISRDNAKNTVYLQINSLKPEDTAVYYCAKLYSSVTTTYPYGLPRYDSWGQGTQVTLSS | high polyreactivity
QVQLVESGGGLVQAGGSLRLSCAASGNTFASYVMGWYRQAPGNERELVAAISWSGGSTYYADSVKGRFTISRDNAKNTVYLQMNSLKPEDTAVYYCNAKRNVRYGYWGQGTQVTVSS | high polyreactivity
QVQLQESAGGLVQAGGSLRLRCSASGYISCDASMGWNRQAPGKERELAASITKGSSTNYADSVKGRFTIRDNAKNTVYLQMNSLKPEDTAVCYCAVTYPYWGDYTYWGQGTQVTVSR | low polyreactivity
QVQLVESGGGLVQAGGSLRLSCAASGSTFRRYAMGWYRQAPGKERELVAAITTNGGSTYYADSVKGRFTISRDNAKNTVYLQMNSLKPEDTAVYYCNARWPYRQRGYDYWGQGTQVTVSS | high polyreactivity
QVQRVESGGGLVQAGGSLRISCAASGSTFITYAMGWYRQERGKERELVAASRWSGGGTYYADSVKGRFTISRDNAKNTVYVQMNSLKPEDTAVYYCAADHFNYTTGRDYWGQGTQVTVSS | low polyreactivity
QVQLVESGGGLVQAGGSLRLSCAASGSTFITNIMGWYRQAPGKERELVAAISYIDGTTYYADSVKGRFTISRDYAKNTVYLQMNSLKADDTAVYYCAAVVSKSSFDYWGQGTQVTVSS | low polyreactivity
QVQHVESGGGLVQAGGSLSLRCAASGSTLPYYAMGGYRPAPGKEREFVAAISSSGGSTYYADSVKGRFTISRDNAKYTVYLQMNSLKPEDTAVYYCNAVLYARQRDRWARYDYWGQGTQVTVSS | high polyreactivity
QVQLVESGGGLVQAGGSLRLSCAASGRTFGGNAMGWYRQAPGKERELVAAITGRGGSTYYADSVKGRFTISRDNAKNTVYLQMNSLKAEDTAVYYCAKQFKRGYGYDYWGQCTQVTVSS | low polyreactivity
QFQLVESGGGLVQAGGSLRLSCAASGSTFKYSAMGWYRQAPGKERELVAIIRSGGRTNYADSVKGRFTISRDNAKNTVYLQMNSLKPEDTAVYYCNARYGRYYGAYEYWGQGTQVTVSS | high polyreactivity

Source: the nanobody polyreactivity screen of Harvey et al. (2022)
